Test results as given in PMC2922993 (Nature chemical biology, 2010).
Non-standard residues stand in square brackets, D forms with d. No end group written: not given here. Lys(Me3) = C[N+](C)(C)CCCC[C@H](N)C(=O)O; Arg(Me2s) = CN=C(NC)NCCC[C@H](N)C(=O)O

T1: inhibitor of growth 2 (ING2) PHD finger
T1 sequence (Q9H160 whole entry, species assumed, looked up): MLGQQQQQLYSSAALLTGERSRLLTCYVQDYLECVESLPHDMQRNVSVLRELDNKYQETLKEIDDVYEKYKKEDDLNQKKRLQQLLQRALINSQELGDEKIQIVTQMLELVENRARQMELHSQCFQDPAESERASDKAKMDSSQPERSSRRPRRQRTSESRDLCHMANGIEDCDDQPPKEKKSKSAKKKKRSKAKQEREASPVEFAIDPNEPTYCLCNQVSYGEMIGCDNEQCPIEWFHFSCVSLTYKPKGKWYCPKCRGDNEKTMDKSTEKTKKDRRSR


Assays:
[1] = target: BRAF-HDAC Complex 80 (BHC80)-PHD finger (UniProt Q96BD5 486-543); test: ITC
Chain of BRAF-HDAC Complex 80 (BHC80)-PHD finger (Q96BD5 486-543, one chain of several): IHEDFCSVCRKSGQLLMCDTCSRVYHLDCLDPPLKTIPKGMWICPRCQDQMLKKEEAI

[2] = target: T1, inhibitor of growth 2 (ING2) PHD finger; test: ITC

| Binder | Kd [1] | Kd [2] |
| --- | --- | --- |
| A[Arg(Me2s)]TKQTARKSTG [H3R2me2s- modified peptide] | 57.2 µM | – |
| ART[Lys(Me3)]QTARKSTG [H3K4me3 peptide (ITC)] | – | 0.98 µM |
| A[Arg(Me2s)]T[Lys(Me3)]QTARKSTG [H3 peptide bearing K4me3 and R2me2s marks] | – | 17.3 µM |
